Target: T1, peptide ARKRERAF(3-CF3)SFGHHA
T1 chain: ARKRERAFSFGHHA

B1: serine/threonine p21-activated kinase PAK4 (protein)
chain: SPQREPQRVSHEQFRAALQLVVDPGDPRSYLDNFIKIGEGSTGIVCIATVRSSGKLVAVKKMDLRKQQRRELLFNEVVIMRDYQHENVVEMYNSYLVGDELWVVMEFLEGGALTDIVTHTRMNEEQIAAVCLAVLQALSVLHAQGVIHRDIKSDSILLTHDGRVKLSDFGFCAQVSKEVPRRKSLVGTPYWMAPELISRLPYGPEVDIWSLGIMVIEMVDGEPPYFNEPPLKAMKMIRDNLPPRLKNLHKVSPSLKGFLDRLLVRDPAQRATAAELLKHPFLAKAGPPASIVPLMRQNRTR
- phosphorylation of the peptide followed by 19F NMR (150 nM PAK4): the reaction in the presence of PAK4 results in the appearance of a 19F signal with a chemical shift similar to the shift of a phosphorylated peptide
- speed of the enzymatic reaction relative to AKT1: The speed of the enzymatic reaction of PAK4 is only 1/22 of the speed of AKT1

— patent US20050048594
